Reference: PMC11793827 (PLOS Pathogens, 2025)

Tests used:
[1] = target: T1, Omicron BA.1 SARS-CoV-2 RBD (SARS-CoV-2, Omicron BA.1, Q493R); assay: ELISA; settings: both partners purified
T1 construct: also called Omicron BA.1 RBD; BA.1 RBD

[2] = target: T2, Omicron BA.5 SARS-CoV-2 RBD (SARS-CoV-2, Omicron BA.5 (RBD same as …, strain)); assay: ELISA; settings: both partners purified
T2 construct: also called Omicron BA.5 RBD; BA.5 RBD

B1: BP3D5 (VHH)
VHH: EVQLQASGGGFVQPGGSLRLSCAASGRAFRIYTMGWFRQAPGKEREFVSAISAGDGAASYYADSVKGRFTISRDNSKNTVYLQMNSLRAEDTATYYCAQYWQSINPIYWGQGTQVTVSS
notes: also called HCAb BP3D5
Kd [1]: 1.12 nM | Kd [2]: 1.83 nM
